Reference: publication PMC4816394

Legend:
[1] = target: human triosephosphate isomerase M82T (hTPI^M82T) (human); assay: SEC; purified TPI diluted to 15 uM in mobile phase, 100 ul injected, elution monitored at 280 nm; peak areas integrated for the relative monomer and dimer populations; dimer to monomers
[2] = target: human triosephosphate isomerase K13M, catalytically inactive (hTPI^Δcat) (human); assay: crystal structure; sitting drops, 28-34% PEG2000 MME, 50 mM KBr; space group P212121, a dimer in the asymmetric unit; 1.7 Å

## human triosephosphate isomerase M82T (hTPI^M82T) (enzyme)
[1]
  percent dimer (dimer:monomer ratio of peak areas): 5%

## human triosephosphate isomerase K13M, catalytically inactive (hTPI^Δcat) (enzyme)
[2]
  stoichiometry N: 2
